In patent US10618964B2, “Nanobody against IL-6R” (Ablynx N.V., dated 2020) one finds OD450 ratio sample/blank data, which are given here for 22 molecules.

Assay [1] concerns the target soluble IL-6R in cynomolgous plasma (cynomolgus monkey, UniProt A0A2K5WN54). Nature of the assay: ELISA 2, periplasmic extract; competitor IL-6; cyno plasma. Here is the method:
(§1) In this ELISA, plasma was used as a source of native soluble IL-6R. By this assay, we aimed to confirm the alphascreen results and to get a view on the cross-reactivity of the clones towards cynomolgous IL-6R. Human plasma (ELISA 1 and ELISA 3) or cynomolgous plasma (ELISA 2) were pre-incubated with a dilution of the periplasmic extract of the clones together with human IL-6 (50 ng/mL). Subsequently, plasma soluble IL-6R was captured on a B-N12 coated plate and bound IL-6 was detected using anti-IL-6 antibody BAF206 and streptavidin-HRP (ELISA 1 and ELISA 2). The ELISA signal dropped when the Nanobody clone could compete with IL-6 for binding to soluble IL-6R. ELISA 3 was a parallel ELISA in which the detection antibody was replaced by anti-IL-6R antibody BAF227 to exclude false positive competitors, which actually compete with B-N12 (e.g. family 2). Depicted in Table C-5 is the ratio of the OD450 value of the test sample versus the blank OD450 (mock sample). Clones were ordered based on ELISA 1 data.
A general note: ELISA stands for enzyme-linked immunosorbent assay.

The target in assay [2] is T1, native soluble IL-6R in human plasma (human, UniProt P08887). As to the kind of experiment: ELISA 1, periplasmic extract; competitor IL-6; human plasma. How it is done: as §1
For assay [3], the target named is T1, native soluble IL-6R in human plasma. As to the kind of experiment: ELISA 3, periplasmic extract; competitor BN-12; human plasma. How it is done:
as §1

B1: IL6RPMP100A10 (VHH)
VHH: EVQLVESGGGLVQAGGSLRLSCAASGRGFSPYTMGWFRQAPGKERVFVAGISWSTGIAHYTDSVKGRFTISRDNAKNTGSLQMNSLKPEDTAVYYCAVVQTTKGNYDYWGQGTQVTVSS
B1: the figures for the OD450 ratio sample/blank in assay [1], in assay [2] and in assay [3] were 0.189, 0.748 and 0.97, respectively.

B2: IL6RPMP107H5 (VHH)
VHH: EVPLVESGGGLVQAGGSLNLSCNASGDIGSINAMGWYRQAPGQQREWVAVITDTDSTIYPDSVKGRFAISRDGAKNTVHLRMSSLKPEDTAVYYCNAYQAGWGDYWGQGTQVTVSS
For B2, the OD450 ratio sample/blank was 0.997 in assay [1], 0.901 in assay [2] and 1.03 in assay [3].

B3: IL6RPMP101A4 (VHH)
VHH: EVQLVESGGGTVQAGGSLKLSCAASGRTFTNYAMGWFRQAPGKEREFVAAIAYATHFADSVKGRFTISRGNAKNTVYLQMNSLKPEDAAVYYCAADLSLSKMVSKITSDMDYWGKGTLVTVSS
Consider B3, for which the OD450 ratio sample/blank in assay [1] was determined as 0.713; in assay [2], 0.792; in assay [3] it was 0.99.

B4: IL6RPMP107H2 (VHH)
VHH: KVQLVESGGGLVQPGGSLRLSCAASGFTFSSYAMSWVRRAPGKGLEWVSAINSDGTGSSYAPFVTGRFTASRDNAKNTLYLQMNSLKPEDTAVYYCTNSNRYDYADFSAVRGQGTQVTVSS
Regarding B4, the OD450 ratio sample/blank was found to be 0.6 in assay [1], 0.865 in assay [2] and 0.962 in assay [3].

B5: IL6RPMP108D2 (VHH)
VHH: EVQLVESGGGLVQAGGSLRLSCAASGFTFDDYDIGWFRQAPGKEREGVSGISSSDGNTYYADSVKGRFTISSDNAKNTVYLQMNSLKPEDTAVYYCAAEPPDSSWYLDGSPEFFKYWGQGTQVTVSS
As for B5, the results for the OD450 ratio sample/blank in assay [1], in assay [2] and in assay [3] were 0.345, 0.0624 and 0.916, respectively.

B6: IL6RPMP106B2 (VHH)
VHH: EVQLVESGGGLVQAGGSLRLSCAASGSIFRINAMGWYRQAPGKQRELVAAAISGGSTNYADFVKGRFTISRDNAKNTVYLQMNSLKPEDTAVYYCNALVVSHNYSDYVPFPDDYWGQGTQVTVSS
Regarding B6, the OD450 ratio sample/blank in assay [1] turned out to be 1.02; in assay [2] it was 0.99; in assay [3] it was 0.984.

B7: IL6RPMP120C11 (VHH)
VHH: EVQLVESGGGLVQAGGSLSLSCATSGRTISDDTMAWFRQAPGKEREFVATITFSGARTHYSDSVRDRFTISRDNAKNTVYLQMNSLKSEDTAVYYCAASTKYYSSTYNYIHPAFYDIWGQGTQVTVSS
Regarding B7, the OD450 ratio sample/blank came out at 0.296 in assay [1], 0.673 in assay [2] and 0.988 in assay [3].

B8: IL6RPMP120B7 (VHH)
VHH: EVQLVESGGGLVQAGGSLSLSCATSGRTISDDTMAWFRQAPGKEREFVATITFSGARTHYSDSVRDRFTISRDNAKNTVYLQMNSLKSEDTAVYYCAASTKYYSSTYNYIHPAFYDIWGQGTQVTVSS
As to B8, the values for the OD450 ratio sample/blank in assay [1], in assay [2] and in assay [3] were 0.299, 0.714 and 1.03, respectively.

B9: IL6RPMP100A6 (VHH)
VHH: EVQLVESGGGLVQAGDSLRLSCLASGRSFKDDAMGWFRQAPGKEREFVSGIDWRGNIVDAESVKGRFTISRENAKNTLYLQMNHLKPEDTAVYYCAASSVFSDLRYRKNPKYWGQGTQVTVSS
Turning to B9, the OD450 ratio sample/blank in assay [1] was 0.722; in assay [2], 0.948; in assay [3], 0.923.

B10: IL6RPMP119A10 (VHH)
VHH: EVQLVESGGGLVQPGGSLRLSCAASKSIFDINAMYWHRQAPGKQRESVASITSGGMRNYADSVKDRFTISKDNAKNTVYLQMNGLKPDDTAVYYCGLGRYEGGVWRDYWGQGTQVTVSS
On to B10, for which the OD450 ratio sample/blank in assay [1] was 0.249; in assay [2], 0.877; in assay [3], 0.989.

B11: IL6RPMP101H6 (VHH)
VHH: EMQLVESGGGLVQAGGSLRLSCTASGRTFTDYDMGWFRQAPGKEREVVAIIDTNGDNTLTVGSVKGRFAISSDNAKNTVYLQMNSLLPEDTAVYTCAAGAWSALRRSVANYWGQGTQVTVSS
For the molecule B11, the OD450 ratio sample/blank in assay [1] was 0.713; in assay [2], 0.788; in assay [3], 0.954.

B12: IL6RPMP101D1 (VHH)
VHH: EVQLVESGGGLVQAGGSLRLSCTASGRTFSDYDMGWFRQAPGKERECVAIIDTNGDNTLIVGSVKGRFAISSDNAKNTVYLQMNSLLPEDTAVYTCAAGVWSSLRHTAANYWGQGTQVTVSS
As for B12, the OD450 ratio sample/blank came out at 0.79 in assay [1], 0.812 in assay [2] and 0.928 in assay [3].

B13: IL6RPMP108D10 (VHH)
VHH: EVQLVESGGGSVQAGGSLRLSCTASGRTFSDYDMGWFRQAPGKERECVAVIDTNGDNTLTVGSVKGRFAISRDNAKNTVYLQMNSLLPEDTAVYTCAAGAWSSLRSTAANYWGQGTQVTVSS
Take B13: the OD450 ratio sample/blank in assay [1] is 0.761; in assay [2], 0.961; in assay [3] it was 1.03.

B14: IL6RPMP108D1 (VHH)
VHH: EVQLVESGGGLVQAGGSLRLSCTASGRTFSDYDMGWFRQAPGKERECVAVIDTNGDNTLTVGSVKGRFAISRDNAKNTVYLQMNSLLPEDTAVYTCAAGAWSSLRSTAANYWGQGTKVTVSS
As to B14, the OD450 ratio sample/blank in assay [1] came to 0.79; in assay [2] it was 0.87; in assay [3] it was 1.04.

B15: IL6RPMP101D2 (VHH)
VHH: EVQMVESGGGLVQAGGSLRLSCAASGFAFDDYAIGWFRQAPGKEREGVSSISSSNGNTYYADSVRGRFTISSDNAKNTVYLQMNSLKPEDAGVYYCAAIWGIFFNEKMPVGAYDYWGQGTQVTVSS
Regarding B15, the OD450 ratio sample/blank in assay [1] is 0.822; in assay [2], 0.124; in assay [3], 0.977.

B16: IL6RPMP101F1 (VHH)
VHH: EVQLVESGGGLVQAGGSLRLSCAASGFAFDDYAIGWFRQAPGKEREGVSSISSSNGNTYYADSVRGRFTISSDNAKNTVYLQMNSLKPEDTGVYYCAAIWGIFFNEKMPVGAYDYWGQGTQVTVSS
Turning to B16, the results for the OD450 ratio sample/blank in assay [1], in assay [2] and in assay [3] were 0.829, 0.754 and 0.957, respectively.

B17: IL6RPMP101G4 (VHH)
VHH: EVQLVESGGGLVQAGGSLRLSCAASGFAFDDYAIGWFRQAPGKEREGVSSISSSNGNTYYADSVRGRFTISSDNAKNTVYLQMNSLKPEDTGVYYCAAIWGIFFNEKMPVGAYDYWGQGTQVTVSS
As to B17, the OD450 ratio sample/blank in assay [1] amounted to 0.815; in assay [2], 0.796; in assay [3], 1.02.

B18: IL6RPMP101E1 (VHH)
VHH: EVQLVESGGGLVQAGGSLRLSCAASGFAFDDYAIGWFRQAPGKEREGVSSISSSNGNTYYADSVRGRFTISSDNAKNTVYLQMNSLKPEDTGVYYCAAIWGIFFNEKMPVGAYDYWGQGTQVTVSS
Turning to B18, the results for the OD450 ratio sample/blank in assay [1], in assay [2] and in assay [3] were 0.805, 0.716 and 0.947, respectively.

B19: IL6RPMP105B8 (VHH)
VHH: EVQLVESGGGLVRAGGSLRLSCAASGFAFDDYAIGWFRQAPGKEREGVSSISSSNGNTYYADSVRGRFTISSDNAKNTVYLQMNSLKPEDTGVYYCAAIWGIFFNEKMPVGAYDYWGQGTQVTVSS
Consider B19, for which the figures for the OD450 ratio sample/blank in assay [1], in assay [2] and in assay [3] were 0.816, 0.808 and 1.03, respectively.

B20: IL6RPMP101H3 (VHH)
VHH: EVQLVESGGGLVQAGGSLRLSCAASGFAFDDYAIGWFRQAPGKEREGVSSISSSNGNTYYADSVRGRFTISSDNAKNTVYLQMNSLKPEDTGVYYCAAIWGIFFNEKMPVGAYDYWGQGTQVTVSS
As for B20, the OD450 ratio sample/blank in assay [1] worked out at 0.859; in assay [2], 0.772; in assay [3], 0.954.

B21: IL6RPMP105E11 (VHH)
VHH: EVQLVESGGGLVQAGGSLRLSCAASGFAFDDYAIGWFRQAPGKEREGVSSISSSNGNTYYADSVRGRFTISSDNAKNTVYLQMNGLKPEDTGVYYCAAIWGIFFNEKMPVGAYDYWGQGTQVTVSS
For B21, the OD450 ratio sample/blank was found to be 0.691 in assay [1], 0.679 in assay [2] and 0.971 in assay [3].

B22: IL6RPMP101F3 (VHH)
VHH: EVQLVESGGGLVQAGGSLRLSCAASGFAFDDYAIGWFRQAPGKEREGVSSISSSNGNTYYADSVRGRFTISSDNAKNTVYLQMNSLKPEDTGVYYCAAIWGIFFNEKMPVGAYDYWGQGTQVTVSS
Take B22: the OD450 ratio sample/blank in assay [1] was found to be 0.822; in assay [2], 0.758; in assay [3] it was 0.984.
